The MegaScale stability set (Tsuboyama et al. 2023)

B1: r4_43_TrROS_Hall (parent)
chain: DLVTIKVPLENLEEIKKAAEKAGFKIVSISYDKENKEVTIVIEKKK

Variants of: B1
Assay: folding stability dG (cDNA display proteolysis); higher = more stable
Conditions: PBS, room temperature

Variant	folding stability dG
DLVTIKVPLENLEEIRKAAEKAGFKIVSISYDKENKEVTIVIEKKK [K16R]	3.37 kcal/mol
DLVTIKVPLENLGEIKKAAEKAGFKIVSISYDKENKEVTIVIEKKK [E13G]	3.63 kcal/mol
DLVTIKVPLENLCEIKKAAEKAGFKIVSISYDKENKEVTIVIEKKK [E13C]	3.74 kcal/mol
DLVTIKVPLENLSEIKKAAEKAGFKIVSISYDKENKEVTIVIEKKK [E13S]	3.54 kcal/mol
DLVTIKVPLENLYEIKKAAEKAGFKIVSISYDKENKEVTIVIEKKK [E13Y]	3.77 kcal/mol
DLVTIKVPLENLREIKKAAEKAGFKIVSISYDKENKEVTIVIEKKK [E13R]	3.2 kcal/mol
DLVTIKVPLENLAEIKKAAEKAGFKIVSISYDKENKEVTIVIEKKK [E13A]	3.28 kcal/mol
DLVTIKVPLENLMEIKKAAEKAGFKIVSISYDKENKEVTIVIEKKK [E13M]	3.68 kcal/mol
DLVTIKVPLENLFEIKKAAEKAGFKIVSISYDKENKEVTIVIEKKK [E13F]	3.99 kcal/mol
DLVTIKVPLENLDEIKKAAEKAGFKIVSISYDKENKEVTIVIEKKK [E13D]	3.64 kcal/mol
DLVTIKVPLENLNEIKKAAEKAGFKIVSISYDKENKEVTIVIEKKK [E13N]	3.6 kcal/mol
DLVTIKVPLENLPEIKKAAEKAGFKIVSISYDKENKEVTIVIEKKK [E13P]	3.52 kcal/mol
DLVTIKVPLENLHEIKKAAEKAGFKIVSISYDKENKEVTIVIEKKK [E13H]	3.55 kcal/mol
DLVTIKVPLENLLEIKKAAEKAGFKIVSISYDKENKEVTIVIEKKK [E13L]	3.9 kcal/mol
DLVTIKVPLENLTEIKKAAEKAGFKIVSISYDKENKEVTIVIEKKK [E13T]	3.46 kcal/mol
DLVTIKVPLENLKEIKKAAEKAGFKIVSISYDKENKEVTIVIEKKK [E13K]	3.62 kcal/mol
DLVTIKVPLENLIEIKKAAEKAGFKIVSISYDKENKEVTIVIEKKK [E13I]	3.69 kcal/mol
DLVTIKVPLENLQEIKKAAEKAGFKIVSISYDKENKEVTIVIEKKK [E13Q]	3.6 kcal/mol
DLVTIKVPLENLWEIKKAAEKAGFKIVSISYDKENKEVTIVIEKKK [E13W]	4.08 kcal/mol

Variant	folding stability dG
DLVTIKVPLENLVEIKKAAEKAGFKIVSISYDKENKEVTIVIEKKK [E13V]	3.61 kcal/mol
DLVTIKVPLEVLEEIKKAAEKAGFKIVSISYDKENKEVTIVIEKKK [N11V]	3.87 kcal/mol
DLVTIKVPLEKLEEIKKAAEKAGFKIVSISYDKENKEVTIVIEKKK [N11K]	3.65 kcal/mol
DLVTIKVPLEELEEIKKAAEKAGFKIVSISYDKENKEVTIVIEKKK [N11E]	3.27 kcal/mol
DLVTIKVPLEHLEEIKKAAEKAGFKIVSISYDKENKEVTIVIEKKK [N11H]	3.83 kcal/mol
DLVTIKVPLETLEEIKKAAEKAGFKIVSISYDKENKEVTIVIEKKK [N11T]	3.59 kcal/mol
DLVTIKVPLEDLEEIKKAAEKAGFKIVSISYDKENKEVTIVIEKKK [N11D]	3.4 kcal/mol
DLVTIKVPLEPLEEIKKAAEKAGFKIVSISYDKENKEVTIVIEKKK [N11P]	2.5 kcal/mol
DLVTIKVPLEMLEEIKKAAEKAGFKIVSISYDKENKEVTIVIEKKK [N11M]	3.51 kcal/mol
DLVTIKVPLEGLEEIKKAAEKAGFKIVSISYDKENKEVTIVIEKKK [N11G]	3.34 kcal/mol
DLVTIKVPLEYLEEIKKAAEKAGFKIVSISYDKENKEVTIVIEKKK [N11Y]	4.11 kcal/mol
DLVTIKVPLEFLEEIKKAAEKAGFKIVSISYDKENKEVTIVIEKKK [N11F]	3.59 kcal/mol
DLVTIKVPLERLEEIKKAAEKAGFKIVSISYDKENKEVTIVIEKKK [N11R]	4.15 kcal/mol
DLVTIKVPLELLEEIKKAAEKAGFKIVSISYDKENKEVTIVIEKKK [N11L]	3.67 kcal/mol
DLVTIKVPLEQLEEIKKAAEKAGFKIVSISYDKENKEVTIVIEKKK [N11Q]	3.76 kcal/mol
DLVTIKVPLEWLEEIKKAAEKAGFKIVSISYDKENKEVTIVIEKKK [N11W]	3.63 kcal/mol
DLVTIKVPLESLEEIKKAAEKAGFKIVSISYDKENKEVTIVIEKKK [N11S]	3.42 kcal/mol
DLVTIKVPLEILEEIKKAAEKAGFKIVSISYDKENKEVTIVIEKKK [N11I]	3.73 kcal/mol
DLVTIKVPLENLEENKKAAEKAGFKIVSISYDKENKEVTIVIEKKK [I15N]	3.08 kcal/mol

Variant	folding stability dG
DLVTIKVPLENLEEMKKAAEKAGFKIVSISYDKENKEVTIVIEKKK [I15M]	3.42 kcal/mol
DLVTIKVPLENLEEDKKAAEKAGFKIVSISYDKENKEVTIVIEKKK [I15D]	2.44 kcal/mol
DLVTIKVPLENLEESKKAAEKAGFKIVSISYDKENKEVTIVIEKKK [I15S]	3.41 kcal/mol
DLVTIKVPLENLEEVKKAAEKAGFKIVSISYDKENKEVTIVIEKKK [I15V]	3.87 kcal/mol
DLVTIKVPLENLEEKKKAAEKAGFKIVSISYDKENKEVTIVIEKKK [I15K]	3.37 kcal/mol
DLVTIKVPLENLEEAKKAAEKAGFKIVSISYDKENKEVTIVIEKKK [I15A]	4.01 kcal/mol
DLVTIKVPLENLEEPKKAAEKAGFKIVSISYDKENKEVTIVIEKKK [I15P]	1.54 kcal/mol
DLVTIKVPLENLEETKKAAEKAGFKIVSISYDKENKEVTIVIEKKK [I15T]	3.38 kcal/mol
DLVTIKVPLENLEEQKKAAEKAGFKIVSISYDKENKEVTIVIEKKK [I15Q]	3.58 kcal/mol
DLVTIKVPLENLEERKKAAEKAGFKIVSISYDKENKEVTIVIEKKK [I15R]	3.42 kcal/mol
DLVTIKVPLENLEEEKKAAEKAGFKIVSISYDKENKEVTIVIEKKK [I15E]	3.39 kcal/mol
DLVTIKVPLENLEEWKKAAEKAGFKIVSISYDKENKEVTIVIEKKK [I15W]	4.14 kcal/mol
DLVTIKVPLENLEEYKKAAEKAGFKIVSISYDKENKEVTIVIEKKK [I15Y]	3.88 kcal/mol
DLVTIKVPLENLEEFKKAAEKAGFKIVSISYDKENKEVTIVIEKKK [I15F]	4.13 kcal/mol
DLVTIKVPLENLEEGKKAAEKAGFKIVSISYDKENKEVTIVIEKKK [I15G]	3.06 kcal/mol
DLVTIKVPLENLEECKKAAEKAGFKIVSISYDKENKEVTIVIEKKK [I15C]	3.45 kcal/mol
DLVTIKVPLENLEELKKAAEKAGFKIVSISYDKENKEVTIVIEKKK [I15L]	3.71 kcal/mol
DLVTIKVPLENLEEHKKAAEKAGFKIVSISYDKENKEVTIVIEKKK [I15H]	3.73 kcal/mol
